Consider two proteins from paper PMC4417153 (Nucleic Acids Research, 2015).

Usually stoichiometry N stands for the number of molecules, sites or subunits per partner or assembly.

Several values for one entry are separate records, joined by “and”; a condition that tells them apart may be missing. Equal entries are not always repeated.

The data set “negative staining EM” deals with the molecule itself. Put plainly: negative staining EM.
The data set “SAXS” concerns the molecule itself. Put plainly: SAXS.

B1: Twinkle (human mitochondrial replicative helicase), aa 30-684, produced in SF9 insect cells (enzyme, UniProt Q96RR1 30-684, looked up)
chain: NLAPGPPRRRYRKETLQALDMPVLPVTATEIRQYLRGHGIPFQDGHSCLRALSPFAESSQLKGQTGVTTSFSLFIDKTTGHFLCMTSLAEGSWEDFQASVEGRGDGAREGFLLSKAPEFEDSEEVRRIWNRAIPLWELPDQEEVQLADTMFGLTKVTDDTLKRFSVRYLRPARSLVFPWFSPGGSGLRGLKLLEAKCQGDGVSYEETTIPRPSAYHNLFGLPLISRRDAEVVLTSRELDSLALNQSTGLPTLTLPRGTTCLPPALLPYLEQFRRIVFWLGDDLRSWEAAKLFARKLNPKRCFLVRPGDQQPRPLEALNGGFNLSRILRTALPAWHKSIVSFRQLREEVLGELSNVEQAAGLRWSRFPDLNRILKGHRKGELTVFTGPTGSGKTTFISEYALDLCSQGVNTLWGSFEISNVRLARVMLTQFAEGRLEDQLDKYDHWADRFEDLPLYFMTFHGQQSIRTVIDTMQHAVYVYDICHVIIDNLQFMMGHEQLSTDRIAAQDYIIGVFRKFATDNNCHVTLVIHPRKEDDDKELQTASIFGSAKASQEADNVLILQDRKLVTGPGKRYLQVSKNRFDGDVGVFPLEFNKNSLTFSIPPKNKARLKKIKDDTGPVAKKPSSGKKGATTQNSEICSGQAPTPDQPDTSKRSK
Take B1: the “stoichiometry N” value in “negative staining EM” is 6 and 7.

B2: Twinkle (human mitochondrial replicative helicase), mature, aa 43-684, produced in E. coli (enzyme, UniProt Q96RR1 43-684, looked up)
chain: ETLQALDMPVLPVTATEIRQYLRGHGIPFQDGHSCLRALSPFAESSQLKGQTGVTTSFSLFIDKTTGHFLCMTSLAEGSWEDFQASVEGRGDGAREGFLLSKAPEFEDSEEVRRIWNRAIPLWELPDQEEVQLADTMFGLTKVTDDTLKRFSVRYLRPARSLVFPWFSPGGSGLRGLKLLEAKCQGDGVSYEETTIPRPSAYHNLFGLPLISRRDAEVVLTSRELDSLALNQSTGLPTLTLPRGTTCLPPALLPYLEQFRRIVFWLGDDLRSWEAAKLFARKLNPKRCFLVRPGDQQPRPLEALNGGFNLSRILRTALPAWHKSIVSFRQLREEVLGELSNVEQAAGLRWSRFPDLNRILKGHRKGELTVFTGPTGSGKTTFISEYALDLCSQGVNTLWGSFEISNVRLARVMLTQFAEGRLEDQLDKYDHWADRFEDLPLYFMTFHGQQSIRTVIDTMQHAVYVYDICHVIIDNLQFMMGHEQLSTDRIAAQDYIIGVFRKFATDNNCHVTLVIHPRKEDDDKELQTASIFGSAKASQEADNVLILQDRKLVTGPGKRYLQVSKNRFDGDVGVFPLEFNKNSLTFSIPPKNKARLKKIKDDTGPVAKKPSSGKKGATTQNSEICSGQAPTPDQPDTSKRSK
For the protein B2, the “stoichiometry N” value in the data set “SAXS” stood at 7; in the data set “negative staining EM” it was 6.
